# Test results published in article PMC8331139.
# Legend:
# [1] = biological target: PSII core complex of Thalassiosira pseudonana (dimeric core, C2) (Thalassiosira pseudonana (endogenous)) (UniProt A0T0N4); assay: cryo-EM structure; cryo-electron tomography of unstacked thylakoid membrane vesicles with sub-volume averaging (EMAN2); complexes in situ in the membrane; 578 PSII and 374 PSI sub-volumes; resolution 4.2 nm (PSII) and 3.3 nm (PSI); densities assigned by rigid-body fitting of structures of other species
# [2] = biological target: FCPII-S, trimeric fucoxanthin chlorophyll a/c protein antenna of PSII (Thalassiosira pseudonana (endogenous)); assay: as above
stoichiometry N [1],stoichiometry N [2],Substance
2,–,"PSII core complex of Thalassiosira pseudonana (dimeric core, C2) (from UniProt A0T0N4 1-38)"
2,3,"FCPII-S, trimeric fucoxanthin chlorophyll a/c protein antenna of PSII (complex)"
